Changes are numbered by the printed parent chain.
Columns and labels:
[1] = molecular target: T1, human CLD18A1 (human, UniProt P56856 1-261); assay: flow cytometry on HEK293-CLD18A1 cells
T1 construct: on transfected HEK293 or CHO cells; also called claudin 18 splice variant 1; NP-057453

[2] = molecular target: T2, murine CLD18A1 (mouse, UniProt P56857 1-264); assay: summary table of murine antibodies
T2 construct: on transiently transfected HEK293 cells; also called mouse CLD18A1; NP-062789

[3] = molecular target: T1, human CLD18A1; assay: summary table of murine antibodies
[4] = molecular target: T3, Peptide 7, Cys-Ser exchange (human); assay: SPOT peptide scan, peroxidase-conjugated antibody, luminescence; Cys-Ser exchange
T3 construct: also called peptide 7 containing serines instead of the two cysteines
T3 peptide: RSSVRESSGFTESRG

[5] = molecular target: T4, Peptide 7 RSCVRESSGFTECRG (human); assay: SPOT peptide scan, peroxidase-conjugated antibody, luminescence; no exchange
T4 construct: linear 15mer of the SPOT peptide scan, no exchange
T4 peptide: RSCVRESSGFTECRG

[6] = molecular target: T5, Peptide 6 QGLWRSCVRESSGFT (human); assay: as above
T5 construct: linear 15mer of the SPOT peptide scan, no exchange
T5 peptide: QGLWRSCVRESSGFT

[7] = molecular target: T6, Peptide 1 MDQWSTQDLYNNPVT (human); assay: as above
T6 construct: linear 15mer of the SPOT peptide scan; has no cysteine, so the Cys-Ser exchange row is the same peptide
T6 peptide: MDQWSTQDLYNNPVT

[8] = molecular target: T7, Peptide 5, Cys-Ser exchange (human); assay: SPOT peptide scan, peroxidase-conjugated antibody, luminescence; Cys-Ser exchange
T7 peptide: VFNYQGLWRSSVRES

[9] = molecular target: T8, Peptide 6, Cys-Ser exchange (human); assay: as above
T8 peptide: QGLWRSSVRESSGFT

[10] = molecular target: T9, Peptide 3 LYNNPVTAVFNYQGL (human); assay: SPOT peptide scan, peroxidase-conjugated antibody, luminescence; no exchange
T9 construct: linear 15mer of the SPOT peptide scan; has no cysteine, so the Cys-Ser exchange row is the same peptide
T9 peptide: LYNNPVTAVFNYQGL

[11] = molecular target: T10, Peptide 5 VFNYQGLWRSCVRES (human); assay: as above
T10 construct: linear 15mer of the SPOT peptide scan, no exchange
T10 peptide: VFNYQGLWRSCVRES

[12] = molecular target: T2, murine CLD18A1; assay: flow cytometry on transfected HEK293 cells
[13] = molecular target: T2, murine CLD18A1; assay: summary of properties
[14] = molecular target: T1, human CLD18A1; assay: summary of properties

B1: ch-125E1 (antibody, V domains shown)
VH: QVQLQQSGAELARPGASVKLSCKASGYTFTDYYINWVKQRTGQGLEWIGEIYPGSGNTYYNEKFKGKATLTADKSSSTAYMQLSSLTSEDSAVYFCARSYGAFDYWGQGTTLTVSS
VL: DIVMTQSQKFMSTSVGDRVSITCKASQNVRTAVAWYQQKPGQSPKALIYLASNRHTGVPDRFTGSGSGTDFTLTISNVQSEDLADYFCLQHWNYPLTFGGGTKLEIKR
notes: mouse/human chimeric, human gamma-1 and kappa constant regions; also called chimeric 125E1
Question: Does B1 bind [1]?
Answer: no binding

B2: 125E1 (antibody, IgG2a, V domains shown)
VH: B1 VH
VL: DIVMTQSQKFMSTSVGDRVSITCKASQNVRTAVAWYQQKPGQSPKALIYLASNRHTGVPDRFTGSGSGTDFTLTISNVQSEDLADYFCLQHWNYPLTFGGGTKLEIK
notes: mouse monoclonal IgG2a, kappa; also called 182-D1106-279; DSM ACC2808
Question: Does B2 bind [2]?
Answer: no binding

Question: Does B2 bind [3]?
Answer: no binding

B3: ch-175D10 (antibody, V domains shown)
VH: QVQLQQPGAELVRPGASVKLSCKASGYTFTSYWINWVKQRPGQGLEWIGNIYPSDSYTNYNQKFKDKATLTVDKSSSTAYMQLSSPTSEDSAVYYCTRSWRGNSFDYWGQGTTLTVSS
VL: DIVMTQSPSSLTVTAGEKVTMSCKSSQSLLNSGNQKNYLTWYQQKPGQPPKLLIYWASTRESGVPDRFTGSGSGTDFTLTISSVQAEDLAVYYCQNDYSYPFTFGSGTKLEIKR
notes: mouse/human chimeric, human gamma-1 and kappa constant regions; peroxidase-conjugated in the peptide scan; also called chimeric 175D10
Question: Does B3 bind [4]?
Answer: binds

Question: Does B3 bind [5]?
Answer: binds

Question: Does B3 bind [6]?
Answer: binds

Question: Does B3 bind [7]?
Answer: binds

B4: ch-163E12 (antibody, V domains shown)
VH: QIQLVQSGPELKKPGETVKISCKASGYTFTNYGMNWVKQAPGKGLKWMGWINTNTGEPTYAEEFKGRFAFSLETSASTAYLQINNLKNEDTATYFCARLGFGNAMDYWGQGTSVTVSS
VL: B3 VL with F102L, S106A, I112L
notes: mouse/human chimeric, human gamma-1 and kappa constant regions; peroxidase-conjugated in the peptide scan; also called chimeric 163E12
Question: Does B4 bind [1]?
Answer: no binding

Question: Does B4 bind [8]?
Answer: binds

Question: Does B4 bind [9]?
Answer: binds

Question: Does B4 bind [6]?
Answer: binds

Question: Does B4 bind [10]?
Answer: binds

Question: Does B4 bind [7]?
Answer: binds

Question: Does B4 bind [11]?
Answer: binds

B5: ch-43A11 (antibody, V domains shown)
VH: QVQLQQSGAELMKPGASVKISCKATGYTFSSYWIEWVKQRPGHGLEWIGEILPGSGSTNYNEKFKGKATFTADTSSNTAYMQLSSLTSEDSAVYYCARYDYPWFAYWGQGTLVTVSA
VL: QIVLTQSPAIMSASPGEKVTITCSASSSVSYMHWFQQKPGTSPKLWIYSTSNLASGVPARFSGSGSGTSYSLTISRMEAEDAATYYCQQRSSYPPTFGGGTKLEIKR
notes: mouse/human chimeric, human gamma-1 and kappa constant regions; also called chimeric 43A11
Question: Does B5 bind [1]?
Answer: no binding

B6: 43A11 (antibody, IgG2a, V domains shown)
VH: B5 VH
VL: QIVLTQSPAIMSASPGEKVTITCSASSSVSYMHWFQQKPGTSPKLWIYSTSNLASGVPARFSGSGSGTSYSLTISRMEAEDAATYYCQQRSSYPPTFGGGTKLEIK
notes: mouse monoclonal IgG2a, kappa; also called 182-D1106-062; DSM ACC2742
Question: Does B6 bind [1]?
Answer: no binding

B7: 163E12 (antibody, IgG3, V domains shown)
VH: B4 VH
VL: DIVMTQSPSSLTVTAGEKVTMSCKSSQSLLNSGNQKNYLTWYQQKPGQPPKLLIYWASTRESGVPDRFTGSGSGTDFTLTISSVQAEDLAVYYCQNDYSYPLTFGAGTKLELK
notes: mouse monoclonal IgG3, kappa; also called 182-D1106-294; DSM ACC2809
Question: Does B7 bind [1]?
Answer: no binding

Question: Does B7 bind [12]?
Answer: no binding

B8: ch-166E2 (antibody, V domains shown)
VH: QVQLQQSGPELVKPGASVKMSCKASGYTFTDYVISWVKQRTGQGLEWIGEIYPGSGSTYYNEKFKGKATLTADKSSNTAYMQLSSLTSEDSAVYFCARGVLLRAMDYWGQGTSVTVSS
VL: DIVMSQSPSSLAVSAGEKVTMSCKSSQSLLNSRTRKNYLAWYQQKPGQSPKLLIYWASTRESGVPDRFTGSGSGTDFTLTISSVQAEDLAVYYCKQSYNLYTFGGGTKLEIKR
notes: mouse/human chimeric, human gamma-1 and kappa constant regions; also called chimeric 166E2
Question: Does B8 bind [1]?
Answer: no binding

B9: 166E2 (antibody, IgG3, V domains shown)
VH: B8 VH
VL: DIVMSQSPSSLAVSAGEKVTMSCKSSQSLLNSRTRKNYLAWYQQKPGQSPKLLIYWASTRESGVPDRFTGSGSGTDFTLTISSVQAEDLAVYYCKQSYNLYTFGGGTKLEIK
notes: mouse monoclonal IgG3, kappa; also called 182-D1106-308
Question: Does B9 bind [13]?
Answer: no binding

Question: Does B9 bind [14]?
Answer: no binding

Source: patent US20100166779A1 (GANYMED PHARMACEUTICALS, published 2010)
